Reference: publication PMC11703740, “Disparate molecular mechanisms in cardiac ryanodine receptor channelopathies” (Frontiers in Molecular Biosciences, 2024)

Target: the molecule itself
Test: cross-linking; HEK293 cell homogenate supernatant (20 ug; 5 mM HEPES, 0.3 M sucrose, 10 mM DTT, pH 7.4) with glutaraldehyde (0.0025% or 260 umol/L) for 0-60 min; SDS-PAGE and Western blot with Ab^cMyc; monomer and tetramer bands by densitometry

| Protein | stoichiometry N |
| --- | --- |
| NT^WT (human RyR2 residues 1-906, cMyc-tagged) (domain or fragment, UniProt Q92736 1-906, looked up, cardiac ryanodine receptor (RyR2), human, N-terminus residues 1-906; also called wild-type RyR2 N-terminus; RyR2-NT; source: HEK293, transiently transfected, in cell homogenate (cross-linking) or CHAPS-solubilized lysate (co-IP)) MADGGEGEDEIQFLRTDDEVVLQCTATIHKEQQKLCLAAEGFGNRLCFLESTSNSKNVPPDLSICTFVLEQSLSVRALQEMLANTVEKSEGQVDVEKWKFMMKTAQGGGHRTLLYGHAILLRHSYSGMYLCCLSTSRSSTDKLAFDVGLQEDTTGEACWWTIHPASKQRSEGEKVRVGDDLILVSVSSERYLHLSYGNGSLHVDAAFQQTLWSVAPISSGSEAAQGYLIGGDVLRLLHGHMDECLTVPSGEHGEEQRRTVHYEGGAVSVHARSLWRLETLRVAWSGSHIRWGQPFRLRHVTTGKYLSLMEDKNLLLMDKEKADVKSTAFTFRSSKEKLDVGVRKEVDGMGTSEIKYGDSVCYIQHVDTGLWLTYQSVDVKSVRMGSIQRKAIMHHEGHMDDGISLSRSQHEESRTARVIRSTVFLFNRFIRGLDALSKKAKASTVDLPIESVSLSLQDLIGYFHPPDEHLEHEDKQNRLRALKNRQNLFQEEGMINLVLECIDRLHVYSSAAHFADVAGREAGESWKSILNSLYELLAALIRGNRKNCAQFSGSLDWLISRLERLEASSGILEVLHCVLVESPEALNIIKEGHIKSIISLLDKHGRNHKVLDVLCSLCVCHGVAVRSNQHLICDNLLPGRDLLLQTRLVNHVSSMRPNIFLGVSEGSAQYKKWYYELMVDHTEPFVTAEATHLRVGWASTEGYSPYPGGGEEWGGNGVGDDLFSYGFDGLHLWSGCIARTVSSPNQHLLRTDDVISCCLDLSAPSISFRINGQPVQGMFENFNIDGLFFPVVSFSAGIKVRFLLGGRHGEFKFLPPPGYAPCYEAVLPKEKLKVEHSREYKQERTYTRDLLGPTVSLTQAAFTPIPVDTSQIVLPPHLERIREKLAENIHELWVMNKIELGWQYGP | 4 |
| NT^A77T (human RyR2 residues 1-906, cMyc-tagged, A77T) (domain or fragment, UniProt Q92736 1-906, looked up, cardiac ryanodine receptor (RyR2), human, N-terminus residues 1-906 with the patient mutation A77T; Mutation made by site-directed mutagenesis in the NT^WT plasmid; a variant reported in patients; also called type II^inter variant; source: HEK293, transiently transfected, in cell homogenate (cross-linking) or CHAPS-solubilized lysate (co-IP)) MADGGEGEDEIQFLRTDDEVVLQCTATIHKEQQKLCLAAEGFGNRLCFLESTSNSKNVPPDLSICTFVLEQSLSVRTLQEMLANTVEKSEGQVDVEKWKFMMKTAQGGGHRTLLYGHAILLRHSYSGMYLCCLSTSRSSTDKLAFDVGLQEDTTGEACWWTIHPASKQRSEGEKVRVGDDLILVSVSSERYLHLSYGNGSLHVDAAFQQTLWSVAPISSGSEAAQGYLIGGDVLRLLHGHMDECLTVPSGEHGEEQRRTVHYEGGAVSVHARSLWRLETLRVAWSGSHIRWGQPFRLRHVTTGKYLSLMEDKNLLLMDKEKADVKSTAFTFRSSKEKLDVGVRKEVDGMGTSEIKYGDSVCYIQHVDTGLWLTYQSVDVKSVRMGSIQRKAIMHHEGHMDDGISLSRSQHEESRTARVIRSTVFLFNRFIRGLDALSKKAKASTVDLPIESVSLSLQDLIGYFHPPDEHLEHEDKQNRLRALKNRQNLFQEEGMINLVLECIDRLHVYSSAAHFADVAGREAGESWKSILNSLYELLAALIRGNRKNCAQFSGSLDWLISRLERLEASSGILEVLHCVLVESPEALNIIKEGHIKSIISLLDKHGRNHKVLDVLCSLCVCHGVAVRSNQHLICDNLLPGRDLLLQTRLVNHVSSMRPNIFLGVSEGSAQYKKWYYELMVDHTEPFVTAEATHLRVGWASTEGYSPYPGGGEEWGGNGVGDDLFSYGFDGLHLWSGCIARTVSSPNQHLLRTDDVISCCLDLSAPSISFRINGQPVQGMFENFNIDGLFFPVVSFSAGIKVRFLLGGRHGEFKFLPPPGYAPCYEAVLPKEKLKVEHSREYKQERTYTRDLLGPTVSLTQAAFTPIPVDTSQIVLPPHLERIREKLAENIHELWVMNKIELGWQYGP | 4 |
| NT^R169L (human RyR2 residues 1-906, cMyc-tagged, R169L) (domain or fragment, UniProt Q92736 1-906, looked up, cardiac ryanodine receptor (RyR2), human, N-terminus residues 1-906 with the CPVT mutation R169L; Mutation made by site-directed mutagenesis in the NT^WT plasmid; a variant reported in patients; also called type I variant; source: HEK293, transiently transfected, in cell homogenate (cross-linking) or CHAPS-solubilized lysate (co-IP)) MADGGEGEDEIQFLRTDDEVVLQCTATIHKEQQKLCLAAEGFGNRLCFLESTSNSKNVPPDLSICTFVLEQSLSVRALQEMLANTVEKSEGQVDVEKWKFMMKTAQGGGHRTLLYGHAILLRHSYSGMYLCCLSTSRSSTDKLAFDVGLQEDTTGEACWWTIHPASKQLSEGEKVRVGDDLILVSVSSERYLHLSYGNGSLHVDAAFQQTLWSVAPISSGSEAAQGYLIGGDVLRLLHGHMDECLTVPSGEHGEEQRRTVHYEGGAVSVHARSLWRLETLRVAWSGSHIRWGQPFRLRHVTTGKYLSLMEDKNLLLMDKEKADVKSTAFTFRSSKEKLDVGVRKEVDGMGTSEIKYGDSVCYIQHVDTGLWLTYQSVDVKSVRMGSIQRKAIMHHEGHMDDGISLSRSQHEESRTARVIRSTVFLFNRFIRGLDALSKKAKASTVDLPIESVSLSLQDLIGYFHPPDEHLEHEDKQNRLRALKNRQNLFQEEGMINLVLECIDRLHVYSSAAHFADVAGREAGESWKSILNSLYELLAALIRGNRKNCAQFSGSLDWLISRLERLEASSGILEVLHCVLVESPEALNIIKEGHIKSIISLLDKHGRNHKVLDVLCSLCVCHGVAVRSNQHLICDNLLPGRDLLLQTRLVNHVSSMRPNIFLGVSEGSAQYKKWYYELMVDHTEPFVTAEATHLRVGWASTEGYSPYPGGGEEWGGNGVGDDLFSYGFDGLHLWSGCIARTVSSPNQHLLRTDDVISCCLDLSAPSISFRINGQPVQGMFENFNIDGLFFPVVSFSAGIKVRFLLGGRHGEFKFLPPPGYAPCYEAVLPKEKLKVEHSREYKQERTYTRDLLGPTVSLTQAAFTPIPVDTSQIVLPPHLERIREKLAENIHELWVMNKIELGWQYGP | 4 |
| NT^G357S (human RyR2 residues 1-906, cMyc-tagged, G357S) (domain or fragment, UniProt Q92736 1-906, looked up, cardiac ryanodine receptor (RyR2), human, N-terminus residues 1-906 with the CPVT mutation G357S; Mutation made by site-directed mutagenesis in the NT^WT plasmid; a variant reported in patients; also called type II^intra variant; source: HEK293, transiently transfected, in cell homogenate (cross-linking) or CHAPS-solubilized lysate (co-IP)) MADGGEGEDEIQFLRTDDEVVLQCTATIHKEQQKLCLAAEGFGNRLCFLESTSNSKNVPPDLSICTFVLEQSLSVRALQEMLANTVEKSEGQVDVEKWKFMMKTAQGGGHRTLLYGHAILLRHSYSGMYLCCLSTSRSSTDKLAFDVGLQEDTTGEACWWTIHPASKQRSEGEKVRVGDDLILVSVSSERYLHLSYGNGSLHVDAAFQQTLWSVAPISSGSEAAQGYLIGGDVLRLLHGHMDECLTVPSGEHGEEQRRTVHYEGGAVSVHARSLWRLETLRVAWSGSHIRWGQPFRLRHVTTGKYLSLMEDKNLLLMDKEKADVKSTAFTFRSSKEKLDVGVRKEVDGMGTSEIKYSDSVCYIQHVDTGLWLTYQSVDVKSVRMGSIQRKAIMHHEGHMDDGISLSRSQHEESRTARVIRSTVFLFNRFIRGLDALSKKAKASTVDLPIESVSLSLQDLIGYFHPPDEHLEHEDKQNRLRALKNRQNLFQEEGMINLVLECIDRLHVYSSAAHFADVAGREAGESWKSILNSLYELLAALIRGNRKNCAQFSGSLDWLISRLERLEASSGILEVLHCVLVESPEALNIIKEGHIKSIISLLDKHGRNHKVLDVLCSLCVCHGVAVRSNQHLICDNLLPGRDLLLQTRLVNHVSSMRPNIFLGVSEGSAQYKKWYYELMVDHTEPFVTAEATHLRVGWASTEGYSPYPGGGEEWGGNGVGDDLFSYGFDGLHLWSGCIARTVSSPNQHLLRTDDVISCCLDLSAPSISFRINGQPVQGMFENFNIDGLFFPVVSFSAGIKVRFLLGGRHGEFKFLPPPGYAPCYEAVLPKEKLKVEHSREYKQERTYTRDLLGPTVSLTQAAFTPIPVDTSQIVLPPHLERIREKLAENIHELWVMNKIELGWQYGP | 4 |
